Patent US20120195900A1 (AbbVie / Abbott, published 2012)
Read-outs that look alike come from different tables or passages of the source. One block for each binder: values may come before it.

Assays:
hIL-13 = hIL-13 (human, UniProt P35225 35-146, limits assumed); experiment: cell-based or functional assay
human IL-12 [1] = biological target: T1, human IL-12 (human, UniProt P29459 23-219; P29460 23-328, biotinylated in the ELISA (site not stated)); experiment: cell-based or functional assay
T1 sequence (looked up) 1: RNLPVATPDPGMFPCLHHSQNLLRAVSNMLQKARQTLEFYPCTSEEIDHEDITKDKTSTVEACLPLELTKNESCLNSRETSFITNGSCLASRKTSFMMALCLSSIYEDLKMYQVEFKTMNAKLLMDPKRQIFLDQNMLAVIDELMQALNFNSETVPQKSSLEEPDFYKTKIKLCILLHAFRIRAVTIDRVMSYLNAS
T1 sequence (looked up) 2: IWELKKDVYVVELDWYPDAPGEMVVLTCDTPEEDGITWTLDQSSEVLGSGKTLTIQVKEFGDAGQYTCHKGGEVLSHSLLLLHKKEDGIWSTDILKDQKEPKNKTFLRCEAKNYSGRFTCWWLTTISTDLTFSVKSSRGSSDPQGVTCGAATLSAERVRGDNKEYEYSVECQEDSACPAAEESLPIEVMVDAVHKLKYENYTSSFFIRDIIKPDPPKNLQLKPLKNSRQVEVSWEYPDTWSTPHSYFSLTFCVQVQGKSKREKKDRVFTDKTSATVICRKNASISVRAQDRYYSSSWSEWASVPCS

human IL-12 [2] = biological target: T1, human IL-12; experiment: ELISA, biotinylated IL-12 on streptavidin plates, anti-human IgG detection (column head: ED50)
Experimental: Plates were washed five times with 1× PBST. Biotinylated IL-12 was diluted to 100 ng/ml in 10% superblock/PBST and 100 ml was added to each well. Plates were incubated for 2 hours at room temperature and then washed five times with 1× PBST. Control antibodies (human IgG and 1D4.1) and TVD-Igs were diluted to 1000 ng/ml and serially diluted 1:3 in 10% SB/PBST. Samples were added to the plate at 100 ml per well and incubated for 1 hour at RT. Plates were then washed five times. […] Plates were incubated for 1 hour at Room Temperature and then washed five times. […] Plates were read on a spectrophotometer at OD 450 nm. The EC50 values were determined using sigmoidal curve fit analysis from the binding curve.

recombinant human IL-18 [3] = biological target: T2, recombinant human IL-18 (human, UniProt Q14116 37-193); experiment: cell-based or functional assay
recombinant human IL-18 [4] = biological target: T2, recombinant human IL-18; experiment: cell-based or functional assay; remark: listed apart in the source

hIL-13, sequence (P35225 35-146 limits assumed): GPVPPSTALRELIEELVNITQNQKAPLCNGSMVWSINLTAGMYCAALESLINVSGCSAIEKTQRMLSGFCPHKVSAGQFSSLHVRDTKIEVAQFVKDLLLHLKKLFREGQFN

- neutralization potency (IC50, nM), A-549 bioassay: TARC production (hIL-13): 0.05 nM
B1: 13C5.5L3F (anti-IL-13 monoclonal antibody) (antibody, V domains shown)
VH: EVTLRESGPGLVKPTQTLTLTCTLYGFSLSTSDMGVDWIRQPPGKGLEWLAHIWWDDVKRYNPALKSRLTISKDTSKNQVVLKLTSVDPVDTATYYCARTVSSGYIYYAMDYWGQGTLVTVSS
VL: DIQMTQSPSSLSASVGDRVTISCRASQDIRNYLNWYQQKPGKAPKLLIFYTSKLHSGVPSRFSGSGSGTDYTLTISSLQPEDIATYYCQQGLTPPLTFGGGTKVEIKR

- neutralization potency (IC50, nM), human IL-12 bioassay: IFN-γ release from PHA blast cells (human IL-12 [1]): 0.624 nM
- EC50 (human IL-12 [2]): 380 pM
B2: 1D4.1 (anti-hIL-12 monoclonal antibody) (antibody, V domains shown)
VH: EVTLRESGPALVKPTQTLTLTCTFSGFSLSKSVMGVSWIRQPPGKALEWLAHIYWDDDKYYNPSLKSRLTISKDTSKNQVVLTMTNMDPVDTATYYCARRGIRSAMDYWGQGTTVTVSS
VL: DIVMTQSPDSLAVSLGERATINCKASQSVSNDVAWYQQKPGQPPKLLIYYASNRYTGVPDRFSGSGSGTDFTLTISSLQAEDVAVYYCQQDYNSPWTFGGGTKVEIKR
notes: also called Control monoclonal antibody; parental monoclonal antibody 1D4.1

- neutralization potency (IC50, nM), KG-1 bioassay: IFN-γ production (recombinant human IL-18 [3]): 0.1 nM
- neutralization potency (IC50, nM), KG-1 bioassay: IFN-γ production (recombinant human IL-18 [4]): 0.58 nM
B3: mAb 2.5 (anti-hIL-18 monoclonal antibody) (antibody, V domains shown)
VH: EVQLVQSGTEVKKPGESLKISCKGSGYTVTSYWIGWVRQMPGKGLEWMGFIYPGDSETRYSPTFQGQVTISADKSFNTAFLQWSSLKASDTAMYYCARVGSGWYPYTFDIWGQGTMVTVSS
VL: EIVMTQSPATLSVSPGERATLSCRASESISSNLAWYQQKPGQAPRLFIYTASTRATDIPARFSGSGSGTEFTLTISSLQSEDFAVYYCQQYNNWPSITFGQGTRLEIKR
